Tests used:
[1] = biological target: TBC1D23 C-terminal domain (mouse) (UniProt Q8K0F1); assay: ITC; peptide (0.8 to 5 mM) titrated into 100 μM TBC1D23 C-terminal domain, 20°C, 100 mM NaCl, 100 mM tris pH 7.4, 1 mM TCEP, Nano ITC
[2] = biological target: Mouse TBC1D23 (559-684), C-terminal domain (mouse) (UniProt Q8K0F1); assay: ITC; peptide (0.8 to 5 mM) titrated into 100 uM TBC1D23 C-terminal domain, 20 injections of 2.4 ul; 20°C; 100 mM NaCl, 100 mM tris pH 7.4, 1 mM TCEP; mean of three runs
Mouse TBC1D23 (559-684), C-terminal domain (mouse), sequence (Q8K0F1 559-684): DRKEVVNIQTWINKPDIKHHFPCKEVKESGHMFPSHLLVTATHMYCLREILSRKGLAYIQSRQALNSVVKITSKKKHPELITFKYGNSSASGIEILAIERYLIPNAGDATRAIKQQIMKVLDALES

TBC1D23 C-terminal domain (mouse), sequence (Q8K0F1 559-684): as above

| Substance | Kd [1] [µM] | Kd [2] [µM] | stoichiometry N [1] |
| --- | --- | --- | --- |
| FAM174C peptide (TLY-like motif) | 16 | – | – |
| CPD peptide (acidic TLY region, ITC) | 10.6 | – | 1 |
| NPDC1 peptide (acidic TLY motif of the tail) | 3 | – | – |
| FAM174C peptide with the acidic TLY motif | – | 15.7 | – |

Second part, the substance after the results:

| Kd [1] [µM] | Kd [2] [µM] | stoichiometry N [1] | Substance |
| --- | --- | --- | --- |
| 35 | – | – | KIAA0319 peptide (acidic TLY motif of the tail) |
| – | 35.2 | – | KIAA0319 peptide with the acidic TLY motif |
| – | 2.9 | – | NPDC1 peptide with the acidic TLY motif |

Source: PMC11093223, “Cargo selective vesicle tethering: The structural basis for binding of specific cargo proteins by the Golgi tether component TBC1D23” (Science Advances, 2024)
